How the values were obtained:
human CD1a = target: T1, human CD1a (human, UniProt P06126 17-327); assay: flow cytometry, phage antibody on C1R cells transfected with CD1a
T1 construct: whole, on cells; also called C1R-CD1a; CR1-CD1a
Protocol: In total, three selection rounds were performed and after both the second and third round, phage antibodies were tested for specific binding on a variety of cell-types, i.e., cultured DCs, PBLs, tonsil and synovial fluid cell suspensions, several cell lines including K562, U266, IM9, U937, THP, CEM, Fravel, HL60, Raji, RPMI8226, HepgII, HELA, HT29 and Jurkatt, a C1R cell line transfected with the molecule CD1a, and A431 cell lines transfected with the molecules CD80, CD83, and CD86. For staining of cells, 100 μl of the phage antibodies were blocked by adding 50 μl of PBS containing 4% milk powder for 15 minutes at room temperature. Next, 5×10⁵ cells in 50 μl of PBS containing 1% BSA were added to the blocked phage antibodies and the mixture obtained was incubated on ice for one hour. After that, the obtained mixture was washed three times with 200 μl PBS containing 1% BSA. To detect cell-bound phage antibodies, the cells were incubated with 20 μl of a 1:800 dilution of sheep anti-M13 polyclonal antibody for 20 minutes on ice. Thereafter, the cells were washed with PBS containing 1% BSA and incubated with 20 μl of a 1:700 dilution of PE-conjugated donkey anti-sheep polyclonal antibody for 20 minutes on ice. […]

CD86 = target: T2, CD86 (UniProt P42081 24-329, limits assumed); assay: flow cytometry, phage antibody on transfected A431 cells
T2 construct: whole, on cells; also called A431 cell line transfected with CD86
T2 sequence (looked up): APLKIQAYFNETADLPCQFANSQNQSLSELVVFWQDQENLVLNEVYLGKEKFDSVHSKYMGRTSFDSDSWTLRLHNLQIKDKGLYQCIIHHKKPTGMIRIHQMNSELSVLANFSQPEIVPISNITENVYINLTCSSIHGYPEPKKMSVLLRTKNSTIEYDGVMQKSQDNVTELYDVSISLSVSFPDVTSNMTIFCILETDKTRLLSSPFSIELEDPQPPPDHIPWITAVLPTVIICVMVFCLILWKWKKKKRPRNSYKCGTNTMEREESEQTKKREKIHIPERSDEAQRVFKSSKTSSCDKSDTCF
Protocol: (§1) In total, three selection rounds were performed and after both the second and third round, phage antibodies were tested for specific binding on a variety of cell-types, i.e., cultured DCs, PBLs, tonsil and synovial fluid cell suspensions, several cell lines including K562, U266, IM9, U937, THP, CEM, Fravel, HL60, Raji, RPMI8226, HepgII, HELA, HT29 and Jurkatt, a C1R cell line transfected with the molecule CD1a, and A431 cell lines transfected with the molecules CD80, CD83, and CD86. For staining of cells, 100 μl of the phage antibodies were blocked by adding 50 μl of PBS containing 4% milk powder for 15 minutes at room temperature. Next, 5×10⁵ cells in 50 μl of PBS containing 1% BSA were added to the blocked phage antibodies and the mixture obtained was incubated on ice for one hour. After that, the obtained mixture was washed three times with 200 μl PBS containing 1% BSA. To detect cell-bound phage antibodies, the cells were incubated with 20 μl of a 1:800 dilution of sheep anti-M13 polyclonal antibody for 20 minutes on ice. Thereafter, the cells were washed with PBS containing 1% BSA and incubated with 20 μl of a 1:700 dilution of PE-conjugated donkey anti-sheep polyclonal antibody for 20 minutes on ice.
(§2) To visualize DCs the cells were washed again with PBS containing 1% BSA, stained with 10 μl 1:10 diluted FITC-conjugated anti-CD1a antibody (BD PharMingen) and suspended in 200 μl of PBS containing 1% BSA. Flow cytometric analyses were performed using a FACScan (Becton Dickinson).
(§3) The twenty scFv phage antibodies derived from the selections described above bound exclusively to the cell line transfected with CD1a (see lower right panel of FIG. 2 for binding of the representative scFv phage antibody called SC02-113 to the CD1a-transfected cell line). […]

CD83 = target: T3, CD83 (UniProt Q01151 20-205, limits assumed); assay: as above
T3 construct: whole, on cells; also called A431 cell line transfected with CD83
T3 sequence (looked up): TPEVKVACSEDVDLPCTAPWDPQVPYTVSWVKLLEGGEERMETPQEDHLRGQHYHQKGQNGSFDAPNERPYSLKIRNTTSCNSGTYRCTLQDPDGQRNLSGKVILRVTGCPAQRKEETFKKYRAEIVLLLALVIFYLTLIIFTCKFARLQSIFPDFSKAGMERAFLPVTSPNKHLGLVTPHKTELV
Protocol: as §1, §2, §3

CD80 = target: T4, CD80 (UniProt P33681 35-288, limits assumed); assay: as above
T4 construct: whole, on cells; also called A431 cell line transfected with CD80
T4 sequence (looked up): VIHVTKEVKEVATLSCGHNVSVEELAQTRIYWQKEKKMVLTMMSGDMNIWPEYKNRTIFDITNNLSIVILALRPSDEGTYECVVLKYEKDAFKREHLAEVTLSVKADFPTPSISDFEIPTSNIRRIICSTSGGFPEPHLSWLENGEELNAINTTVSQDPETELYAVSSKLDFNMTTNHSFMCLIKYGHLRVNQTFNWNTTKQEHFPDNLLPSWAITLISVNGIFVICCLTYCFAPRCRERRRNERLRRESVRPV
Protocol: as §1, §2, §3

T1 sequence (P06126 17-327): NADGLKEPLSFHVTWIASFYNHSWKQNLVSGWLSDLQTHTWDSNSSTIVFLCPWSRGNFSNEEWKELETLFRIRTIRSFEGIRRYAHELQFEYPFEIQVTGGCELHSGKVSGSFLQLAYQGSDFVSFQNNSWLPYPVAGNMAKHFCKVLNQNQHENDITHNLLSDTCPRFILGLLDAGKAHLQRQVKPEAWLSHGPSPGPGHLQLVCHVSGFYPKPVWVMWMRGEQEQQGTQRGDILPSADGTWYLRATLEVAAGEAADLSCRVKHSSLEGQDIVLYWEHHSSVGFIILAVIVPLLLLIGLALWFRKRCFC

B1: scFv phage antibody SC02-115 (scFv)
scFv: QVQLVQSGAEAKKPGASVKVSCKASGYTFTGYYMHWVRQAPGQGLEWMGWISAYNGNTNYAQKLQGRVTMTTDTSTSTAYMELRSLRSDDTAVYYCARSQMPSYFDYWGQGTLVTVSRGGGGSGGGGSGGGGSSELTQDPAVSVALGQTVRITCQGDSLRSYYASWYQQKPGQAPVLVIYGKNNRPSGIPDRFSGSSSGNTASLTITGAQAEDEADYYCNSRDSSGNHVVFGGGTKLTVLG
Human CD1a
  binding result: binds
CD86
  binding result: no binding
CD83
  binding result: no binding
CD80
  binding result: no binding
